Test results reported in the nanobody polyreactivity screen of Harvey et al. (2022).

test: yeast display, Sf9 membrane polyspecificity reagent, FACS + sequencing; frameworks hold sequencing errors
In short: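 A synthetic nanobody library was expressed on Saccharomyces cerevisiae BJ5465 by galactose induction for 36–48 hours. The library was stained for 1 hour at 4 °C with 10% biotinylated, detergent-solubilized Sf9 membrane reagent and enriched with streptavidin microbeads before FACS. Low and high (top ~1%) gates were set on anti-HA fluorescence for expression and streptavidin fluorescence for reagent binding, and each polyreactivity label reflects the gate of origin.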

Row | Sequence | polyreactivity (PSR sort gate)
1 | QVQLVESGGGLVQAGGSLRLTCAASGNTFNNNAMGWYRQAPGKERELVAAISGSGGSTYYADSVKGRFTISRDNAKNTVYLQMNSLKPEDTAVYYCAVRLVHGGKRYGYWGQGTQVTVSS | high polyreactivity
2 | QVQLVESGGGLVQAGGSLRLTCAASGRIFKRYVMGWYRQAPGKERELVAAISVRGASTYYADSVKGRFTISRDHAKNTVYLQMNSLKPEDTAVYYCATAGYRLLDYWGQGTQVTVSS | high polyreactivity
3 | QVQLVESGGGLVQAGGSLRLTCAASGRIFNYYAMGWYRQAPGKERELVAVITYSAGRTYYADSVKGRFTLSRDNAKNTVYLEMNSLKPEDTAVYYCNADGWVSVSKHYYYWGQGTQVTVSS | low polyreactivity
4 | QVQLVESGGGLVQAGGSLRLTCAASGRIFTGYAMGWYRQAPWKERELVAAISRGSSTYADSVKGRFTISRDNAKNTVYLQRNSLKPEDTAVYYCAAKWRAADWWPRTSQYDYWGQGTQVTVSS | high polyreactivity
5 | QVQLVESGGGLVQAGGSLRLTCAASGRIFYQYALGWYRQAPGKERELVSSITTSGGNTYYADSVKVRFTISRDNAKNTVYLQMNSLKPEDTAVYYCASRFNWRQWLYEYWGQGTQVSVSS | low polyreactivity
6 | QVQLVESGGGLVQAGGSLRLTCAASGRNFPAYVMGWYRQAPGKERELVAGITSASSTYYADSVKGRFTISRDNAKNTVYLQMNSLKPEDTAVYYCAAVGYSVRQRYDYWGQGSQVTVSS | high polyreactivity
7 | QVQLVESGGGLVQAGGSLRLTCAASGRTFHAYVMGWYRQAPGKERELVADISSGGDTYADSVKGRFTISRDNAKNTVYLQMNSLKPEDTAVYYCAVDVIQDESGYWGQGTQVTVSS | low polyreactivity
8 | QVQLVESGGGLVQAGGSLRLTCAASGRTFRKNAMGWYRQAPGKERELVAAITGSSGTTYYADSVKGRFTISRDNAKNTVYLQMNSLKPEDTAVYYCATTVGDPGRRYYYWGQGTQVTVSS | high polyreactivity
9 | QVQLVESGGGLVQAGGSLRLTCAASGRTFRQYAMGWYRQAPGKERELVAAIRTNGGRTYYADSVKGRFTISRDYAKNTVYLQFNSLKPEDTAVYYCAVYAVVQGVLFDYWGQGTQVTVSS | high polyreactivity
10 | QVQLVESGGGLVQAGGSLRLTCAASGRTFRRNAMGWYRPAPAKERELVAAITSGGGTYYADSVKGRFTISRDNAKNTVYLQMNSLKPEDTAVYYCNKKTSAGRVDYWGQGTQVTVSS | high polyreactivity
11 | QVQLVESGGGLVQAGGSLRLTCAASGRTFYIYTMGWYRQAPGKERELVAAISSSGDSTYYADSVKGRFTISRDNAKYTVYLQMISLKPEDTAVYYCAAEYAYHHVGFGYWGQGTQVTVSS | low polyreactivity
12 | QVQLVESGGGLVQAGGSLRLTCAASGRTFYYYAMGWYRKAPGKERELVAAIDSDGSTTYADSVKGRFTISRDNAKNTVYLQINSLKPEDTAVYYCAAAFPTYRHYYWGQGTQVTVSS | low polyreactivity
13 | QVQLVESGGGLVQAGGSLRLTCAASGRTLAWYTMGWYRQAPGKERELVAAISGSGGSTYYADSVKGRFTISRDNAKNTVYFQINRLKPEDTAVYYCSLRVDSYYGHTRYYYWGQGTQVTLSS | high polyreactivity
14 | QVQLVESGGGLVQAGGSLRLTCAASGRTLNPYAMGWYRQAPGKERELVAAITWRGGSTYYADSVKGRFTISRDNAKNTVYLQMNSLKPEDTAVYYCAAREYYYPYYYWGQGTQVTVSS | high polyreactivity
15 | QVQLVESGGGLVQAGGSLRLTCAASGRTYNLYAMGWSRQAPGKERELVAAISSSTDSTYYAYSVKGRFTISRDNAKITVYLEMNSLKPEDTSVYYFAARRPSYPRYGYWGQGTQVTVSS | high polyreactivity
16 | QVQLVESGGGLVQAGGSLRLTCAASGSIFEPYTKGWYRQAPAKERELVAAITGSGGSTFYADSVKARFTISRDNAKNTVYLQMNSLKPEDTAVYYCNANAYPYTDVDYWGQGTQVTVSS | low polyreactivity
17 | QVQLVESGGGLVQAGGSLRLTCAASGSIFEYNGMGWYRQAPGKERELVAAITTTGTTDYADSVKGRFTISRDNAKNTVYLQMNSLKPEDTAVDYCAAEYTYYYTGEYDYWGQGTQVTVSS | low polyreactivity
18 | QVQLVESGGGLVQAGGSLRLTCAASGSIFISYHMGWYRQAPGKERELVAAIRSRVGSTYYSDSVKGRFTISRDNAKNPVYFQMNCLKPEDPAVYYCAAERSFSRFTTYDYWGQGTQVTVSS | low polyreactivity
19 | QVQLVESGGGLVQAGGSLRLTCAASGSIFSTNAMGWYRQAPGKERELVATITSGGRTYYADSVKGRFTISRDNAKNTVYLQMNSLKPEDTAVYYCARVPPKYRWGRRLVYVHVDYWGQGTQVTVSS | low polyreactivity
20 | QVQLVESGGGLVQAGGSLRLTCAASGSIFTGNTMGWYRQATGKERELVAAITGSGGRTYYADSVKGRFTISRDNAKNTVYLQMNSLKPEDTAVYYCAADRSYYPDTRTTYGYNYWGQGTQVTVSS | low polyreactivity
21 | QVQLVESGGGLVQAGGSLRLTCAASGSIFYVNAMGWYRQAPGKERESVAGITGSGSRTYYADSVKGRFTISRDNAKNTVYLQMNSLKPEDTAVYYCARLTRTSRGLYDYWGQGTQVTVSS | high polyreactivity

Row | Sequence | polyreactivity (PSR sort gate)
22 | QVQLVESGGGLVQAGGSLRLTCAASGSIIYTNGMGWYRQAPAKERELVAAISVSGGSTYYADSVKGRFTITRDNEKNTVYLQMNSLKPEDTAVYFCNAKDWYFYRYDYWGQGTQVTVSS | low polyreactivity
23 | QVQLVESGGGLVQAGGSLRLTCAASGSTDPYAMGWYRQAPGKERELVARIRYSGGSTYYADSVKGRCTISRDNAKNTVYFQMTSLKPEDTAVYYCAAQSYTYYHHYGYWGQGTQVTVSS | high polyreactivity
24 | QVQLVESGGGLVQAGGSLRLTCAASGSTFAYYAMRWYRQAPGTERELVAVINGITGSTYYADSVKGRFTISRDHAKNTVYLQMNSLKPEDTAVYYCNADYAVVTDEGDYWGQGTQVTVSS | low polyreactivity
25 | QVQLVESGGGLVQAGGSLRLTCAASGSTFGDNAMGWYRQAPGKEREFVATISWDTGTTYYADSVKGRFTISRDNAKNTVYLHMNSLKQEDTAVYYCNVQSYAEFGYWGQGTQVTVSS | low polyreactivity
26 | QVQLVESGGGLVQAGGSLRLTCAASGSTFGLNAMGWYRQAPAKERELVAAITSRGTRTYYADSVKGRFTISRDNAKNTVYLQMNSLKPEDTAVYYCGKDSGATRYGEYDYWGQGTQVTVSS | low polyreactivity
27 | QVQLVESGGGLVQAGGSLRLTCAASGSTFISYAMGWYRPAPGKERELVAAISRRGDSTYYADSVKGRFTISRDNAKYTVYLQMKSLKPEDTAVYYCAADSYPAYLGFVGFDYWRQGTQVTVSS | low polyreactivity
28 | QVQLVESGGGLVQAGGSLRLTCAASGSTFRLNAIGWYRQAPGKERELVAAISRSTGTTHYADSVKGRFTISRDNAKHTVYLQMNSLIPEDTAVYYCAAQGGDGVLALYYYWGQGTQVTVSS | low polyreactivity
29 | QVQLVESGGGLVQAGGSLRLTCAASGSTFRLYAMGWYRQAPGKERELVAGISRTGTSTYYADSVKGRFTISRDNAKTTVFLQMNSLKPEDTAVYYCAASIGGGSYWGQGTQLTVSS | high polyreactivity
30 | QVQLVESGGGLVQAGGSLRLTCAASGSTFRWYAMGWYRPAPGKERELVAVITSGASTNYADSVKGRFTISRDNAKNTVYLQMNSLKPEDTAVYYCNRVPYFRWKYGYWGQGTQVTVSS | high polyreactivity
31 | QVQLVESGGGLVQAGGSLRLTCAASGSTFSSYGMGWYRQAPGKERELVASITIRGGSTYYADSVKGRFTISRDNAKNTVYLQMNSLKPEDTAVYYCAADVTNRGTWVIYGYYYWGQGTQVTVSS | low polyreactivity
32 | QVQLVESGGGLVQAGGSLRLTCAASGSTFTAYAMGWYRQAPGKDLELVDAINWSGGTTYYADSVKGRFTISRDNAKNTVYLQMNSLKPEDTAVYYCPVDGNFFGEVRPYDYWGQGTQVTLSS | low polyreactivity
33 | QVQLVESGGGLVQAGGSLRLTCAASGSTFTYNGMGWYRQAPGKERELVAAITKRGGSTYYADSVKGRFTISRDNAKNTVYLQMNSLKPEETAVYYCAKPAASGFRWDSGYWGQGTQVTLSS | high polyreactivity
34 | QVQLVESGGGLVQAGGSLRLTCAASGSTFTYYAMGWYRQAPGKERDLVAAITSSDGSTYYADSVKGRFTISRDNAKNTVYLQMNSLKPEDTAVYYCAADNYVDFYDEYDYWGQGTQVTVSS | low polyreactivity
35 | QVQLVESGGGLVQAGGSLRLTCAASGSTFWDNTMGWYRQAPGKDRELVAGITGGGNTKYADSVKGRFTISRDNAKNTVYLQMNSLKPEDTAVYYCAAERLRGYRGVRGYYGYYYWGQGTQVTVSS | high polyreactivity
36 | QVQLVESGGGLVQAGGSLRLTCAASGSTFWSYGMGWYRPAPGKERELVAAITRGGSTYYADSVKGRFTISRDNAKNTVYLQMNSLIPEDTAVYYCAAGISVRWSPSYYYWGQGTQVTVSS | high polyreactivity
37 | QVQLVESGGGLVQAGGSLRLTCAASGSTIGGNPMVCYRHAPGKERELVAAITFSGGSTSYADSVKGRFTISRDNAKNTVYLQMNSLKPEDTAVYYCAASWVYPYDYWRQGTQVTVSS | low polyreactivity
38 | QVQLVESGGGLVQAGGSLRLTCAASGSTLNYYAMGWYRQAPGKERELVAAIRSGGNTNYADSVKGRFTISRDNAKNTVYLQMNSLKPEDTAVYYCAKDESYFYDRVPLDYWGQGTQVTVSS | low polyreactivity
39 | QVQLVESGGGLVQAGGSLRLTCAASGSTLSTYVMGWYRQAPGKERELVAAITRRGGITYYADSVKGRFTISRDNAKNTVYLQMNSLKPEDTAVYYCAATGVRSKRLASQWKLYYWGQGTQVTVSS | high polyreactivity
40 | QVQLVESGGGLVQAGGSLRLTCAASGSTLYWKAMGWYRQAPGKERELVASITSSGGSTYYADSVKGRFTISRDNAKNTVYLQMNSLKPEDTAVYDCATESWWRYSEYYYWGQGSQVTVSS | low polyreactivity
41 | QVQLVESGGGLVQAGGSLRLTCAASGSTSYPYAMGWYRQEPGKERELVATITSGGRTNYADSVKGRFTISRDNAKNTVYLQMHSLKPEDTAVYYCNARFYRWRSYGYDYWGQGTQVTVSS | high polyreactivity
